# Publication PMC10397247
# B1: 4H1449-bA (peptide)
# chain: DENAQLEQKNAELEQKIAELKWEIAQLEQ
# B2: 4H1629-bA (peptide)
# chain: DENAQLKQEIAELKQENAELKWKIAQLEQ
# B3: 4H1845-bN (peptide)
# chain: DENQQLKQKIQELEQKNQELEWKIQELEQ
# Experiments:
# Experiment in all cases: two-hybrid library CCNG1;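 note: natural log of median RNA to DNA barcode read ratio; higher means stronger binding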
# 4H850-bA = molecular target: T1, 4H850-bA
# T1 chain: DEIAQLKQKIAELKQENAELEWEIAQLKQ
# 4H3817-bA = molecular target: T2, 4H3817-bA
# T2 chain: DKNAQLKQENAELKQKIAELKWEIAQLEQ
# 4H3414-bA = molecular target: T3, 4H3414-bA
# T3 chain: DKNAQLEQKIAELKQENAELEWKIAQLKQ
# 4H1899-bA = molecular target: T4, 4H1899-bA
# T4 chain: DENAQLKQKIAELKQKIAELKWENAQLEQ
# 4H1629-bA = molecular target: T5, 4H1629-bA
# T5 chain: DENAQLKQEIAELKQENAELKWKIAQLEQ
# 4H619-bA = molecular target: T6, 4H619-bA
# T6 chain: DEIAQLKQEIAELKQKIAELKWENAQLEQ
# 4H1449-bA = molecular target: T7, 4H1449-bA
# T7 chain: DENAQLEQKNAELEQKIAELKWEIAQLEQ
# 4H3974-bA = molecular target: T8, 4H3974-bA
# T8 chain: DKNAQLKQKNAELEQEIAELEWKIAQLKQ
# 4H3129-bA = molecular target: T9, 4H3129-bA
# T9 chain: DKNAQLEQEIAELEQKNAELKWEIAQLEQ
# 4H3631-bA = molecular target: T10, 4H3631-bA
# T10 chain: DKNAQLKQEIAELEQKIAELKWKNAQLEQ
# 4H1710-bA = molecular target: T11, 4H1710-bA
# T11 chain: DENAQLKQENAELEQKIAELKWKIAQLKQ
# 4H1804-bA = molecular target: T12, 4H1804-bA
# T12 chain: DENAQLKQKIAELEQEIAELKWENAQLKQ
# 4H1985-bA = molecular target: T13, 4H1985-bA
# T13 chain: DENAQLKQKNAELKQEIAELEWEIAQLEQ
# 4H3858-bA = molecular target: T14, 4H3858-bA
# T14 chain: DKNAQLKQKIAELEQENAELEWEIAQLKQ
# 4H570-bA = molecular target: T15, 4H570-bA
# T15 chain: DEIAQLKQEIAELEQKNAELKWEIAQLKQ
# 4H3628-bA = molecular target: T16, 4H3628-bA
# T16 chain: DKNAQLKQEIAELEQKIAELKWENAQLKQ
# 4H584-bA = molecular target: T17, 4H584-bA
# T17 chain: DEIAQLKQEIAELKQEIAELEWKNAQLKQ
# 4H906-bA = molecular target: T18, 4H906-bA
# T18 chain: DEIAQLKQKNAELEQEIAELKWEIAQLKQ
# 4H3613-bA = molecular target: T19, 4H3613-bA
# T19 chain: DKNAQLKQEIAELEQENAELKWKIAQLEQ
# 4H3638-bA = molecular target: T20, 4H3638-bA
# T20 chain: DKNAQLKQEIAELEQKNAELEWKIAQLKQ
# 4H3172-bA = molecular target: T21, 4H3172-bA
# T21 chain: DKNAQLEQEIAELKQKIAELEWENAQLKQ
# 4H1544-bA = molecular target: T22, 4H1544-bA
# T22 chain: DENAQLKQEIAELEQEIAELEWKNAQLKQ
# 4H2667-bN = molecular target: T23, 4H2667-bN
# T23 chain: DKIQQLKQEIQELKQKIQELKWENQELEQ
# 4H462-bN = molecular target: T24, 4H462-bN
# T24 chain: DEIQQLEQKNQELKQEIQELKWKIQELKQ
# 4H570-bN = molecular target: T25, 4H570-bN
# T25 chain: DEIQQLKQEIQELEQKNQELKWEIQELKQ
# 4H3185-bN = molecular target: T26, 4H3185-bN
# T26 chain: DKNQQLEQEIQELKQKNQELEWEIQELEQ
# 4H338-bN = molecular target: T27, 4H338-bN
# T27 chain: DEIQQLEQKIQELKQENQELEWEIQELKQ
# 4H2618-bN = molecular target: T28, 4H2618-bN
# T28 chain: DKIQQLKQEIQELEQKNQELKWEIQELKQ
# 4H4001-bN = molecular target: T29, 4H4001-bN
# T29 chain: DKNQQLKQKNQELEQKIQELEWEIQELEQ
# 4H568-bN = molecular target: T30, 4H568-bN
# T30 chain: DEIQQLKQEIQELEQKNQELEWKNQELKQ
# 4H3782-bN = molecular target: T31, 4H3782-bN
# T31 chain: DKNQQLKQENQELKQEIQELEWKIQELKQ
# 4H2697-bN = molecular target: T32, 4H2697-bN
# T32 chain: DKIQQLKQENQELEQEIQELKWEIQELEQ
# 4H454-bN = molecular target: T33, 4H454-bN
# T33 chain: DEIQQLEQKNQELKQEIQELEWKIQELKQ
# 4H3112-bN = molecular target: T34, 4H3112-bN
# T34 chain: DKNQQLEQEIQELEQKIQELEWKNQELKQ
# 4H3189-bN = molecular target: T35, 4H3189-bN
# T35 chain: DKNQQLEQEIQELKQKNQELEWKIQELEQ
# 4H2588-bN = molecular target: T36, 4H2588-bN
# T36 chain: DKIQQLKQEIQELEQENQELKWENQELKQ
# 4H3427-bN = molecular target: T37, 4H3427-bN
# T37 chain: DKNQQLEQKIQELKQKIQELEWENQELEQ
# 4H754-bN = molecular target: T38, 4H754-bN
# T38 chain: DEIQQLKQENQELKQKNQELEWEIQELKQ
# 4H717-bN = molecular target: T39, 4H717-bN
# T39 chain: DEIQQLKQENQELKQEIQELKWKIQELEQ
# 4H72-bN = molecular target: T40, 4H72-bN
# T40 chain: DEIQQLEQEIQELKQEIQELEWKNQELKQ
# 4H3606-bN = molecular target: T41, 4H3606-bN
# T41 chain: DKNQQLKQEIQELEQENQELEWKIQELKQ
# 4H3855-bN = molecular target: T42, 4H3855-bN
# T42 chain: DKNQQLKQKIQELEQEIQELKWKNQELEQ
# 4H331-bN = molecular target: T43, 4H331-bN
# T43 chain: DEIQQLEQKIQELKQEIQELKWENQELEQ
# 4H3843-bN = molecular target: T44, 4H3843-bN
# T44 chain: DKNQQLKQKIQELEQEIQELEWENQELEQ
# 4H967-bN = molecular target: T45, 4H967-bN
# T45 chain: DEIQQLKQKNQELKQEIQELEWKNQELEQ
# 4H2729-bN = molecular target: T46, 4H2729-bN
# T46 chain: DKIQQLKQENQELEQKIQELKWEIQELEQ
# 4H3354-bN = molecular target: T47, 4H3354-bN
# T47 chain: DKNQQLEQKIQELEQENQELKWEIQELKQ
# 4H797-bN = molecular target: T48, 4H797-bN
# T48 chain: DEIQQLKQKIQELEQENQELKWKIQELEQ
# 4H883-bN = molecular target: T49, 4H883-bN
# T49 chain: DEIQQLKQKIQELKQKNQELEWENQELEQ
# 4H687-bN = molecular target: T50, 4H687-bN
# T50 chain: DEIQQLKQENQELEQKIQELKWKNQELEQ
# 4H908-bN = molecular target: T51, 4H908-bN
# T51 chain: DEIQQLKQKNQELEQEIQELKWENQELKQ
# 4H2610-bN = molecular target: T52, 4H2610-bN
# T52 chain: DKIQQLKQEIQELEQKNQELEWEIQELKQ
# 4H953-bN = molecular target: T53, 4H953-bN
# T53 chain: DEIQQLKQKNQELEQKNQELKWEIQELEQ
# 4H2576-bN = molecular target: T54, 4H2576-bN
# T54 chain: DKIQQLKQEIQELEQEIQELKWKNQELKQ
# 4H2442-bN = molecular target: T55, 4H2442-bN
# T55 chain: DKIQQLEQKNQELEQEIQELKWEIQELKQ
# 4H1845-bN = molecular target: T56, 4H1845-bN
# T56 chain: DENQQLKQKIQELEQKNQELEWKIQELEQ
# 4H370-bN = molecular target: T57, 4H370-bN
# T57 chain: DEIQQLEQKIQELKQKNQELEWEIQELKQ
# 4H619-bN = molecular target: T58, 4H619-bN
# T58 chain: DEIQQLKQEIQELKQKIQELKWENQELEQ
# 4H607-bN = molecular target: T59, 4H607-bN
# T59 chain: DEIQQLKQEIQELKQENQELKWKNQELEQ
# 4H918-bN = molecular target: T60, 4H918-bN
# T60 chain: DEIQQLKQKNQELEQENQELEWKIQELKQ
binder,measurement,setting,value
B1,interaction score,4H850-bA,-0.723
same,interaction score,4H3817-bA,-0.857
same,interaction score,4H3414-bA,-1.03
same,interaction score,4H1899-bA,-0.25
same,interaction score,4H1629-bA,-1.11
same,interaction score,4H619-bA,-1.52
same,interaction score,4H1449-bA,-0.613
same,interaction score,4H3974-bA,2.19
same,interaction score,4H3129-bA,-0.874
same,interaction score,4H3631-bA,0.473
same,interaction score,4H1710-bA,0.786
same,interaction score,4H1804-bA,-0.732
same,interaction score,4H1985-bA,0.787
same,interaction score,4H3858-bA,-0.848
same,interaction score,4H570-bA,-1.93
same,interaction score,4H3628-bA,-0.201
same,interaction score,4H584-bA,-1.3
same,interaction score,4H906-bA,-0.904
same,interaction score,4H3613-bA,-0.891
same,interaction score,4H3638-bA,-1.83
same,interaction score,4H3172-bA,-1.06
same,interaction score,4H1544-bA,-0.535
B2,interaction score,4H2667-bN,-1.22
same,interaction score,4H850-bA,-1.14
same,interaction score,4H3817-bA,-0.529
same,interaction score,4H3414-bA,0.702
same,interaction score,4H1629-bA,0.605
same,interaction score,4H619-bA,-0.0748
same,interaction score,4H3974-bA,-0.124
same,interaction score,4H3129-bA,0.102
same,interaction score,4H3631-bA,-0.216
same,interaction score,4H1710-bA,-0.992
same,interaction score,4H1804-bA,-1.39
same,interaction score,4H1985-bA,-0.329
same,interaction score,4H570-bA,-0.594
same,interaction score,4H584-bA,-1.4
same,interaction score,4H906-bA,-0.968
same,interaction score,4H3638-bA,-0.477
same,interaction score,4H3172-bA,-0.887
B3,interaction score,4H2667-bN,0.755
same,interaction score,4H462-bN,-0.741
same,interaction score,4H570-bN,-2.11
same,interaction score,4H3185-bN,-0.558
same,interaction score,4H338-bN,-0.586
same,interaction score,4H2618-bN,-0.877
same,interaction score,4H4001-bN,-1
same,interaction score,4H568-bN,-1.33
same,interaction score,4H3782-bN,-1.24
same,interaction score,4H2697-bN,-1.96
same,interaction score,4H454-bN,-0.965
same,interaction score,4H3112-bN,-0.777
same,interaction score,4H3189-bN,-0.856
same,interaction score,4H2588-bN,-1.62
same,interaction score,4H3427-bN,-1.53
same,interaction score,4H754-bN,-1.28
same,interaction score,4H717-bN,-0.951
same,interaction score,4H72-bN,-0.603
same,interaction score,4H3606-bN,-0.857
same,interaction score,4H3855-bN,-0.717
same,interaction score,4H331-bN,-1.66
same,interaction score,4H3843-bN,-0.731
same,interaction score,4H967-bN,-1.31
same,interaction score,4H2729-bN,-0.274
same,interaction score,4H3354-bN,-0.397
same,interaction score,4H797-bN,-0.559
same,interaction score,4H883-bN,-0.686
same,interaction score,4H687-bN,-1.5
same,interaction score,4H908-bN,-0.834
same,interaction score,4H2610-bN,-0.755
same,interaction score,4H953-bN,-1.04
same,interaction score,4H2576-bN,-1.34
same,interaction score,4H2442-bN,-0.755
same,interaction score,4H1845-bN,0.0957
same,interaction score,4H370-bN,-1.16
same,interaction score,4H619-bN,-0.153
same,interaction score,4H607-bN,-1.09
same,interaction score,4H918-bN,-1.04
